# Assay results published in paper PMC5095800, “A standardized production pipeline for high profile targets from Mycobacterium tuberculosis” (Proteomics. Clinical Applications, 2016).
# B1: Ferritin BfrB (natural protein)
# chain: MTEYEGPKTKFHALMQEQIHNEFTAAQQYVAIAVYFDSEDLPQLAKHFYSQAVEERNHAMMLVQHLLDRDLRVEIPGVDTVRNQFDRPREALALALDQERTVTDQVGRLTAVARDEGDFLGEQFMQWFLQEQIEEVALMATLVRVADRAGANLFELENFVAREVDVAPAASGAPHAAGGRL
# notes: also called Rv3841; copies: 24
# Target: the molecule itself
# Experiment: SEC
protein,measurement,value
B1,stoichiometry N,24
